Measured values as given in paper PMC10523585 (Molecular cell, 2023).

How the values were obtained:
Assay in all cases: cryo-EM structure
[1] = target: Rpt5 (ATPase subunit of the human 26S proteasome) (human, UniProt P17980 1-439)
[2] = target: Rpn1 (non-ATPase, ubiquitin-binding subunit of the human 26S proteasome) (human, UniProt Q13200 1-908)
[3] = target: Rpt1 (ATPase subunit of the human 26S proteasome) (human, UniProt P35998 1-433)
[4] = target: T1, α7 (CP subunit of the human 26S proteasome) (human, UniProt P25788 2-255)
T1 sequence: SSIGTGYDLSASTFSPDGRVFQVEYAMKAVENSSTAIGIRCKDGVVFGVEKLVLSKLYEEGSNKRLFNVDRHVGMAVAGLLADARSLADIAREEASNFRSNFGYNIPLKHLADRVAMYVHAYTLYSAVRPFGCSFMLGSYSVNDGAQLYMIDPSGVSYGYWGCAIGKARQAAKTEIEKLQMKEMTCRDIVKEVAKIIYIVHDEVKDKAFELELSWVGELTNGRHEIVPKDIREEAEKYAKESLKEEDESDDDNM

Measured: binding result

Chain of Rpt5 (ATPase subunit of the human 26S proteasome) (P17980 whole entry): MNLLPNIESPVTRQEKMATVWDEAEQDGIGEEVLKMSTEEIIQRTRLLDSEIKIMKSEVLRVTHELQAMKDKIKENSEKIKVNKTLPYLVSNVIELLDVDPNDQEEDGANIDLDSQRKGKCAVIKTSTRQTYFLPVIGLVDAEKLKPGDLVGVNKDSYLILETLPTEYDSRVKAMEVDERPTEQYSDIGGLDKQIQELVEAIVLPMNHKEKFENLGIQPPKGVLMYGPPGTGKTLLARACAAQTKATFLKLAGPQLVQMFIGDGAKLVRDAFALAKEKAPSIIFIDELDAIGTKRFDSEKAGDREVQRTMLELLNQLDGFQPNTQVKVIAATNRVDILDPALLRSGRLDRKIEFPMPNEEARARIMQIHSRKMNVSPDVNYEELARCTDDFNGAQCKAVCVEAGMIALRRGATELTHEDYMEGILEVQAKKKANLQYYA
Chain of Rpt1 (ATPase subunit of the human 26S proteasome) (P35998 whole entry): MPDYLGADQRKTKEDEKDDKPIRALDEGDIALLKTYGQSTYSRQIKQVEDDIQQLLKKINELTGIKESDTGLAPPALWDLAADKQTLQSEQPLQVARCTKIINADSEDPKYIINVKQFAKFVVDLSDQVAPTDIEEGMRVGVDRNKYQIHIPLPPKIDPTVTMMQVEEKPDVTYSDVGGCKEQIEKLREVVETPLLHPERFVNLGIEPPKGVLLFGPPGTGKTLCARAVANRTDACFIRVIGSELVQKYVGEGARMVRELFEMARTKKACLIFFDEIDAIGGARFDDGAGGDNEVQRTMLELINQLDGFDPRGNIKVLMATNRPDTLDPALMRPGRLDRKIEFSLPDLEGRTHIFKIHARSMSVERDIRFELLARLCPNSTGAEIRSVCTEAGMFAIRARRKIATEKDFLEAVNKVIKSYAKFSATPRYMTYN
Chain of Rpn1 (non-ATPase, ubiquitin-binding subunit of the human 26S proteasome) (Q13200 whole entry): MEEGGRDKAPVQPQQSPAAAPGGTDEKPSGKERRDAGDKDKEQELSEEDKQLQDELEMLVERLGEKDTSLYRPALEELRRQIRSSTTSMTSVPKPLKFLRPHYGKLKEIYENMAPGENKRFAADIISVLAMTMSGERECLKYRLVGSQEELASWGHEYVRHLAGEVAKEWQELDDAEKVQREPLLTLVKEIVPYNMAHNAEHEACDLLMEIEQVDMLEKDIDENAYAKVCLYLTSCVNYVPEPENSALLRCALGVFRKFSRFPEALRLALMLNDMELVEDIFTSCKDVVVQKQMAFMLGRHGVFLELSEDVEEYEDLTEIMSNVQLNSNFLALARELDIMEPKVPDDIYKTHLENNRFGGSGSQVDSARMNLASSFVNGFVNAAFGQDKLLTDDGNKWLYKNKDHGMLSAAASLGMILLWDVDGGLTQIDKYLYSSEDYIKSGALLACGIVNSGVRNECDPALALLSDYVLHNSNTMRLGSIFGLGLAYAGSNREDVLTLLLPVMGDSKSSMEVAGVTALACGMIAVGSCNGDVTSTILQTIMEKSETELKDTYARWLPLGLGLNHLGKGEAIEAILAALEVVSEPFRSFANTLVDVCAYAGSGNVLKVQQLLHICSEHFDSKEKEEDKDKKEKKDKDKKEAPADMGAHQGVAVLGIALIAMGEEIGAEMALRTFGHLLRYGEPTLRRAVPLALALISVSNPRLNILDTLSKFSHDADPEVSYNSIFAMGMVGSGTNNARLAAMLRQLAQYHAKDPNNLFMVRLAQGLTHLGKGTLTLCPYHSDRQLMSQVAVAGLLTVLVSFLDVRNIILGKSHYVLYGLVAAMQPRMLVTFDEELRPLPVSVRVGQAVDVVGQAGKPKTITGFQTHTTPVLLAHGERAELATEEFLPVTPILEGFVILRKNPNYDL

B1: ZFAND5 (recombinant mouse ZFAND5, wild type) (natural protein, UniProt O88878 1-213, looked up)
chain: MAQETNQTPGPMLCSTGCGFYGNPRTNGMCSVCYKEHLQRQQNSGRMSPMGTASGSNSPTSDSASVQRADAGLNNCEGAAGSTSEKSRNVPVAALPVTQQMTEMSISREDKITTPKTEVSEPVVTQPSPSVSQPSSSQSEEKAPELPKPKKNRCFMCRKKVGLTGFDCRCGNLFCGLHRYSDKHNCPYDYKAEAAAKIRKENPVVVAEKIQRI
binds: [1] | [2] | [3] | [4]
